As usually defined, the stoichiometry N is a count of units in the complex or per binding partner.

The results in this text go back to article PMC11767649.

Assay [1] has as its target T1, recombinant human RKIP (rhRKIP) wild type, histidine-tagged (human), P30086. The assay is described as follows: non-reducing SDS-PAGE; purified rhRKIP in sample loading buffer without β-mercaptoethanol or boiling; Coomassie Brilliant Blue staining or anti-His immunoblot. The conditions noted are these: remark: other sources report otherwise.
For assay [2], the target named is T1, recombinant human RKIP (rhRKIP) wild …. In words: LC Q-TOF mass spectrometry; purified rhRKIP WT and mutant proteins in buffer at pH 7.4; peaks around 22 kDa (monomer) and 44 kDa (dimer). The conditions noted are these: remark: other sources report otherwise.

B1: recombinant human RKIP (rhRKIP) wild type, histidine-tagged, P30086 1-187 (natural protein)
chain: MPVDLSKWSGPLSLQEVDEQPQHPLHVTYAGAAVDELGKVLTPTQVKNRPTSISWDGLDSGKLYTLVLTDPDAPSRKDPKYREWHHFLVVNMKGNDISSGTVLSDYVGSGPPKGTGLHRYVWLVYEQDRPLKCDEPILSNRSGDHRGKFKVASFRKKYELRAPVAGTCYQAEWDDYVPKLYEQLSGK
With B1, the stoichiometry N in assay [1] and in assay [2] was 2 each time.
